Sequences and labels used below:
T1: 127-140aa
T1 peptide: {Biotin-Ahx}-MPSEEGYQDYEPEA

T2: 64-78aa
T2 construct: also called alpha-synuclein peptide 64-78
T2 peptide: {Biotin-Ahx}-TNVGGAVVTGVTAVA

T3: 82-96aa
T3 construct: also called alpha-synuclein peptide 82-96
T3 peptide: {Biotin-Ahx}-VEGAGSIAAATGFVK

T4: 91-105aa
T4 peptide: {Biotin-Ahx}-ATGFVKKDQLGKNEE

T5: 1-15aa
T5 construct: also called alpha-synuclein peptide 1-15
T5 peptide: {Biotin-Ahx}-MDVFMKGLSKAKEGV

T6: 1-14aa
T6 construct: also called alpha-synuclein peptide 1-14
T6 peptide: MDVFMKGLSKAKEG-biotin

T7: 118-132aa
T7 peptide: {Biotin-Ahx}-VDPDNEAYEMPSEEG

T8: 46-60aa
T8 construct: also called alpha-synuclein peptide 46-60
T8 peptide: {Biotin-Ahx}-EGVVHGVATVAEKTK

T9: 10-24aa
T9 construct: also called alpha-synuclein peptide 10-24
T9 peptide: {Biotin-Ahx}-KAKEGVVAAAEKTKQ

B1: ACI-7079-2503C6-Ab1 (antibody, V domains shown)
VH: DVQLQESGPGLVKPSQSLSLTCSVTGYSITSGYYWNWIRLFPGNKLEWLGYINYDGSNNFNPSLKNRISITRDTSKNQFFLKLNSVTSEDTATYFCLRGDWDWGQGTLVTVSA
VL: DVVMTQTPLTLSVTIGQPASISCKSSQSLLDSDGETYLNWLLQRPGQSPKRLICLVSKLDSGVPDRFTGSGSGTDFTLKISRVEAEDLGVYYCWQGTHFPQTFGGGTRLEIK
notes: mouse hybridoma mAb; VH/VL only; also called 2503C6H9
B2: ACI-7079-2511B3-Ab3 (antibody, V domains shown)
VH: B1 VH with Y27F, G32Y, L40Q, L49M, G50A, N53S, F60Y, S88T, F95Y, L97T
VL: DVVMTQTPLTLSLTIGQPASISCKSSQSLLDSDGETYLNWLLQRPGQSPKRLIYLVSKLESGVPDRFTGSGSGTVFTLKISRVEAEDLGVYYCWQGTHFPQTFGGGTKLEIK
notes: mouse hybridoma mAb; VH/VL only; also called 2511B3B12
B3: ACI-7067-1101C8-Ab2 (antibody, V domains shown)
VH: EVQLVESGGGLVQPKGSLKLSCAASGFSFNIYAMNWVRQAPGKGLEWVARIRSKSNNYATYYADSVKDRFTISRADSESMLYLQMNNLKTEDTAMYYCVRVGLRFYAMDYWGQGTSVTVSS
VL: DVLMTQTPLSLPVSLGDQASISCRSSQSIVHSNGNTYLEWYLQKPGQSPKLLIYKVSNRFSGVPDRFSGSGSGTDFTLKISRVEAEDLGVYYCFQGSQGPLTFGAGTKLELK
notes: mouse hybridoma mAb; VH/VL only; also called 1101C8F7
B4: ACI-7079-2501G2-Ab2 (antibody, V domains shown)
VH: B3 VH with S28N, I31T, S53T, Y58F, D64H, A75D, V101Q, R104A, F105Y
VL: B3 VL with A19V, S28T
notes: mouse hybridoma mAb; VH/VL only; also called 2501G2E5
B5: ACI-7067-1116F2-Ab1 (antibody, V domains shown)
VH: DVQLQESGPGFVKPSQSLSLTCSVTGYSITRGFYWNWIRQFPGNKLEWMGYISDDGNSNYNPSLKNRISITRDTFKNQVFLRLNSVTTEDTATYYCTRGDLLWGQGTTLTVSS
VL: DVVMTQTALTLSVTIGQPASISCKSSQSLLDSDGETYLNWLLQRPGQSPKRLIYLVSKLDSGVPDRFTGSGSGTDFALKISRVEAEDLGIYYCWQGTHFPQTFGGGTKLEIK
notes: mouse hybridoma mAb; VH/VL only; also called 1116F2A2
B6: ACI-7067-1102G3-Ab1 (antibody, V domains shown)
VH: EVKLEESGGGLVQPGGSMKLSCAASGFTFSDAWMNWVRQSPEKGLEWVAEIRNKAHNHATYYAESVKGRFTISGDDSKSSVYLQMNNLRAEDTGIYYCTIYSYWGQGTLVTVSA
VL: SIVMTQTPKFLLVSAGDRVTITCKASQSVTKDVAWYQQKPGQSPKLLIYSTSNRYSGVPDRFTGSGYGTDFTFTINTVQTEDLAVYFCQQDYRIPYTFGGGTKLEIK
notes: mouse hybridoma mAb; VH/VL only; also called 1102G3F2
B7: ACI-7067-1112H8-Ab2 (antibody, V domains shown)
VH: B6 VH with S30T, V48I, H58Y, T71D, A90V, Q106P
VL: SIVMTQTPKFLLMSPGDRVTMTCTASQSVSNYVAWYQQKPGQSPKLLIYSASNRFTGVPDRFTGSGYGTDFTFTINTVQTEDMAVYFCQQDYTSPYTFGGGTKLEIK
notes: mouse hybridoma mAb; VH/VL only; also called 1112H8C12
B8: ACI-7067-1108H1-Ab1 (antibody, V domains shown)
VH: B6 VH with E5V, A23T, Y61N, Y103F
VL: B6 VL with K31N, D32Y, Q37H, T51A
notes: mouse hybridoma mAb; VH/VL only; also called 1108H1E1
B9: ACI-7079-2506E2-Ab2 (antibody, V domains shown)
VH: QVQLQQSGPELVRPGASVKISCKASGYAFSNSWMNWVKQRPGKGLEWIGRIFPGDGDTYYDGKFKGKVKLTTDKFSNTAYMQLRSLTSEDSAVYFCARWGGTNDEWFAHWGQGTLVTVSV
VL: DIVLTQSPASLTVSLGQRATISCRASQSVSTSRNSYMHWYQQKPRQPPKLLIKYASNLESGVPARFSGSGSGADFTLNIHPVEEEDTATYYCQHSWDIPLTFGTGTKLELS
notes: mouse hybridoma mAb; VH/VL only; also called 2506E2G4

Residue numbers refer to the chain shown, from its start. Where no end group is shown, it is not given here. The star is where a group is joined. Biotin = O=C1N[C@H]2[C@H](CS[C@H]2CCCCC(=O)*)N1; Ahx = NCCCCCC(=O)O

The target of one experiment is T1, 127-140aa. Nature of the experiment: indirect ELISA on biotinylated 15-mer peptide. Here is the method:
(§1) Serum-free supernatants were harvested from stable hybridomas. The supernatants containing antibodies of interest were then screened by an indirect ELISA assay to determine epitopes. Epitopes were first determined using a library of 15-mer peptides covering the entire sequence of human alpha-synuclein protein, spanning amino acids (aa) 1-140 with 9aa offset and […] overlap. […] Briefly, streptavidin-coated ELISA plates were blocked overnight at 4° C. […] Plates were washed with PBS/0.05% Tween®20 and then incubated with the hybridoma supernatants at 1/100 dilution for 1 hour at 25° C.
On to B1, for which the binding result is “no binding (tested: supernatant 1/100)”.

As for B2, the binding result is on record as “no binding (tested: supernatant 1/100)”.

On to B3, for which the binding result was “no binding (tested: supernatant 1/100)”.

On to B4, for which the binding result is on record as “no binding (tested: supernatant 1/100)”.

For B5, the binding result is “no binding (tested: supernatant 1/100)”.

On to B6, for which the binding result is “no binding (tested: supernatant 1/100)”.

As to B7, the binding result is listed as “no binding (tested: supernatant 1/100)”.

On to B8, for which the binding result is reported as “no binding (tested: supernatant 1/100)”.

For B9, the binding result is listed as “no binding (tested: supernatant 1/100)”.

The target of the next experiment is T2, 64-78aa. Nature of the experiment: indirect ELISA on biotinylated 15-mer peptide. Here is the method: as §1
For orientation: In an ELISA, binding on a coated surface is turned into a signal by an enzyme label.
With B3, the binding result is “no binding (tested: supernatant 1/100)”.

For B5, the binding result is reported as “no binding (tested: supernatant 1/100)”.

For the next experiment, the target named is T3, 82-96aa. The experiment is described as follows: indirect ELISA on biotinylated 15-mer peptide. Here is the method:
as §1
For B3, the binding result is reported as “no binding (tested: supernatant 1/100)”.

On to B4, for which the binding result is given as “no binding (tested: supernatant 1/100)”.

Consider B6, for which the binding result is on record as “no binding (tested: supernatant 1/100)”.

As to B7, the binding result is “no binding (tested: supernatant 1/100)”.

With B8, the binding result is recorded as “no binding (tested: supernatant 1/100)”.

In the case of B9, the binding result is given as “no binding (tested: supernatant 1/100)”.

A further experiment concerns the target T4, 91-105aa. Nature of the experiment: indirect ELISA on biotinylated 15-mer peptide. Here is the method:
as §1
Turning to B1, the binding result is on record as “no binding (tested: supernatant 1/100)”.

With B2, the binding result was “no binding (tested: supernatant 1/100)”.

In the case of B4, the binding result was “no binding (tested: supernatant 1/100)”.

With B9, the binding result is “no binding (tested: supernatant 1/100)”.

Another experiment addresses T5, 1-15aa. The experiment is described as follows: indirect ELISA on biotinylated 15-mer peptide. Here is the method:
as §1
With B1, the binding result is reported as “no binding (tested: supernatant 1/100)”.

On to B2, for which the binding result is “no binding (tested: supernatant 1/100)”.

With B4, the binding result is “no binding (tested: supernatant 1/100)”.

B9: the binding result is “no binding (tested: supernatant 1/100)”.

The target in a further experiment is T6, 1-14aa. Nature of the experiment: indirect ELISA on biotinylated 15-mer peptide. Here is the method: as §1
As for B1, the binding result is “no binding (tested: supernatant 1/100)”.

Regarding B2, the binding result is recorded as “no binding (tested: supernatant 1/100)”.

Turning to B4, the binding result was “no binding (tested: supernatant 1/100)”.

Regarding B9, the binding result is “no binding (tested: supernatant 1/100)”.

Another experiment addresses T7, 118-132aa. Nature of the experiment: indirect ELISA on biotinylated 15-mer peptide. Here is the method:
as §1
Consider B1, for which the binding result was “no binding (tested: supernatant 1/100)”.

As to B2, the binding result is given as “no binding (tested: supernatant 1/100)”.

Consider B5, for which the binding result was “no binding (tested: supernatant 1/100)”.

Take B6: the binding result was “no binding (tested: supernatant 1/100)”.

For B7, the binding result was “no binding (tested: supernatant 1/100)”.

In the case of B8, the binding result is given as “no binding (tested: supernatant 1/100)”.

The target in the next experiment is T8, 46-60aa. The experiment is described as follows: indirect ELISA on biotinylated 15-mer peptide. Here is the method: as §1
B1: the binding result is listed as “no binding (tested: supernatant 1/100)”.

With B2, the binding result is “no binding (tested: supernatant 1/100)”.

For the molecule B3, the binding result is given as “no binding (tested: supernatant 1/100)”.

In the case of B4, the binding result was “no binding (tested: supernatant 1/100)”.

With B5, the binding result is “no binding (tested: supernatant 1/100)”.

As to B6, the binding result was “no binding (tested: supernatant 1/100)”.

B7: the binding result was “no binding (tested: supernatant 1/100)”.

In the case of B8, the binding result is reported as “no binding (tested: supernatant 1/100)”.

On to B9, for which the binding result is reported as “no binding (tested: supernatant 1/100)”.

The next experiment deals with T9, 10-24aa. Nature of the experiment: indirect ELISA on biotinylated 15-mer peptide. Here is the method: as §1
Consider B1, for which the binding result was “no binding (tested: supernatant 1/100)”.

As to B2, the binding result is recorded as “no binding (tested: supernatant 1/100)”.

For the molecule B4, the binding result is recorded as “no binding (tested: supernatant 1/100)”.

For B9, the binding result is “no binding (tested: supernatant 1/100)”.

A further experiment concerns the target T2, 64-78aa. Nature of the experiment: indirect ELISA on biotinylated 15-mer peptide, supernatant 1/100. Here is the method:
as §1
On to B6, for which the binding result is recorded as “binds”.

B7: the binding result is listed as “binds”.

With B8, the binding result was “binds”.

For a further experiment, the target named is T3, 82-96aa. The description is as above. Here is the method:
as §1
B1: the binding result was “binds”.

Consider B2, for which the binding result is “binds”.

Consider B5, for which the binding result was “binds”.

The target of another experiment is T7, 118-132aa. Described as above. Here is the method: as §1
Take B3: the binding result is listed as “binds”.

For the molecule B4, the binding result is “binds”.

Consider B9, for which the binding result is listed as “binds”.

A further experiment has as its target alpha-synuclein seeds (UniProt P37840 1-140). Nature of the experiment: cell-based or functional assay.
As to B1, the “aggregation half-time (τ1/2) of seeded alpha-synuclein aggregation, ThT; no antibody 26.9 hours” value (“aggregation half-time … no antibody 26.9 hours” for short) turned out to be 22.5 h.

Take B3: the “aggregation half-time … no antibody 26.9 hours” value is 64 h.

As to B8, the “aggregation half-time … no antibody 26.9 hours” value amounted to 28 h.

These data come from US20250340623A1 (AC IMMUNE, published 2025).
